Data as given in the DeepSol protein solubility set.

Assay: soluble on expression in E. coli; label from the status in PepcDB or PDB records
With “LLVVGPKFIRANQEYTLVISNFNSQLSKVDLLLKLEGETDNGLSVLNVTKMVDVRRNMNRMINFNMPEDLTAGNYKITIDGQRGFSFHKEAELVYLSKSISGLIQVDKPVFKPGDTVNFRVIVLDTELKPPARVKSVYVTIRDPQRNVIRKWSTAKLYAGVFESDLQIAPTPMLGVWNISVEVEGEELVSKTFEVKEYVLSTFDVQVMPSVIPLEEHQAVNLTIEANYHFGKPVQGVAKVELYLDDDKLKLKKELTVYGKGQVELRFDNFAMDADQQDVPVKVSFVEQYTNRTVVKQSQITVYRYAYRVELIKESPQFRPGLPFKCALQFTHHDGTPAKGISGKVEVSDVRFETTTTSDNDGLIKLELQPSEGTEQLSIHFNAVDGFFFYEDVNKVETVTDAYIKLELKSPIKRNKLMRFMVTCTERMTFFVYYVMSKGNIIDAGFMRPNKQPKYLLQLNATEKMIPRAKILIATVAGRTVVYDFADLAFQELRNNFDLSIDEQEIKPGRQIELSMSGRPGAYVGLAAYDKALLLFNKNHDLFWEDIGQVFDGFHAINENEFDIFHSLGLFARTLDDILFDSANEKTGRNALQSGKPIGKLVSYRTNFQESWLWKNVSIGRSGSRKLIEVVPDTTTSWYLTGFSIDPVYGLGIIKKPIQFTTVQPFYIVENLPYSIKRGEAVVLQFTLFNNLGAEYIADVTLYNVANQTEFVGRPNTDLSYTKSVSVPPKVGVPISFLIKARKLGEMAVRVKASIMLGHETDALEKVIRVMPESLVQPRMDTRFFCFDDHKNQTFPINLDINKKADSGSTKIEFRLNPNLLTTVIKNLDHLLGVPTGCGEQNMVKFVPNILVLDYLHAIGSKEQHLIDKATNLLRQGYQNQMRYRQTDGSFGLWETTNGSVFLTAFVGTSMQTAVKYISDIDAAMVEKALDWLASKQHFSGRFDKAGAEYHKEMQGGLRNGVALTSYVLMALLENDIAKAKHAEVIQKGMTYLSNQFGSINNAYDLSIATYAMMLNGHTMKEEALNKLIDMSFIDADKNERFWNTTNPIETTAYALLSFVMAEKYTDGIPVMNWLVNQRYVTGSFPSTQDTFVGLKALTKMAEKISPSRNDYTVQLKYKKSAKYFKINSEQIDVENFVDIPEDTKKLEINVGGIGFGLLEVVYQFNLNLVNFENRFQLDLEKQNTGSDYELRLKVCASYIPQLTDRRSNMALIEVTLPSGYVVDRNPISEQTKVNPIQKTEIRYGGTSVVLYYDNMGSERNCFTLTAYRRFKVALKRPAYVVVYDYYNTNLNAIKVYEVDKQNLCEICDEEDCPAECGGHHHHHH” the “soluble on expression in E. coli” value was “soluble”.
In the case of “MPVQPPSKDTEEMEAEGDSAAEMNGEEEESEEERSGSQTESEEESSEMDDEDYERRRSECVSEMLDLEKQFSELKEKLFRERLSQLRLRLEEVGAERAPEYTEPLGGLQRSLKIRIQVAGIYKGFCLDVIRNKYECELQGAKQHLESEKLLLYDTLQGELQERIQRLEEDRQSLDLSSEWWDDKLHARGSSRSWDSLPPSKRKKAPLVSGPYIVYMLQEIDILEDWTAIKKARAAVSPQKRKSDGP”, the “soluble on expression in E. coli” value is reported as “soluble”.
For “DIISVALKRHSTKAFDASKKLTAEEAEKIKTLLQYSPSSTNSQPWHFIVASTEEGKARVAKSAAGTYVFNERKMLDASHVVVFCAKTAMDDAWLERVVDQEEADGRFNTPEAKAANHKGRTYFADMHRVDLKDDDQWMAKQVYLNVGNFLLGVGAMGLDAVPIEGFDAAILDEEFGLKEKGFTSLVVVPVGHHSVEDFNATLPKSRLPLSTIVTEC”, the “soluble on expression in E. coli” value was “soluble”.
With “AEGVKTTAEAPAAEPALAAYVPMPRPFLFNLPGPDRARLVEIKVQLMVRGQDDEVLTQKHIPLIEDALLTTFSGADVQKLSTQAGKDELRQLALLSVQNTLQPVTGRKVVEKVLFTGFVMQ” the “soluble on expression in E. coli” value was “not soluble”.
With “MLSCELYRMSTYSTFPAGVPVSERSLARAGFYYTGVNDKVKCFCCGLMLDNWKRGDSPTEKHKKLYPSCRFVQSL” the “soluble on expression in E. coli” value was “soluble”.
With “MQFGIFTIGDVTTDPTTGVTPSEHDRINAMTQIALKAEEVGLDVFATGEHHNPPFVPSSPTTHLAYIAAQTKNIQLSTSTTLITTNDPVKIAEDYAFLQHLSGGRVDLMMGRGNTGPVYPWFGKDIRKGIPLAVENYHLLRKLWREPVVNWKGEFRTPLQNYTSTPAPLGDVPPFVWHGSIRSVQIAEQAAFYGDGFFHNNIFWNKEHTAQMVNIYRQRFEKYGHGRADQAIVGLGGQVFIGETEAEAKKFFRPYFDNAPVYGHGPSLEEFTELTPLTVGTVEQVIERTMQFADWVGDYQRQLFLIDHAGLPLEVVLNQIEILGTQVVPELRRRMEKRRPDHVPSDPPSHSFLKAHPEHPHFLVEPSKTSAQ” the “soluble on expression in E. coli” value was “not soluble”.
In the case of “MGSDKIHHHHHHMSNSSRLSVASNSQDATSPLRLLVLSNGHGEDVIAVRILQELQRQSNPPEIFALPLVGEGRAYQQLEIPLIGSVRTMPSGGFIYMDGRQLARDVRGGLLQLTLSQIKAVRRWVSSQKKLGNKRAILAVGDIVPLLFATFSGANYAFVGTAKSEYYVRDEAGLLPRKSKDARWENFSGSVYHPWERWLMSRRRCKAVFPRDVLTTETLKQWPIPAFNLGNPMMDGLQPTFSRQQFYSRDSHQQETVRPLMVTLLPGSRPPEAYTNWEKIMIAVSALMASFQERDSVFYTSGTVVFLGAIAPGLDSNILSQSVQSQGWRAESVCPIQLPDPNILTFKQRNAYLLLTQQSYNDCLHLGDFAIAMAGTATEQFIGLGKPAIAIPGNGPQYNPAFAEAQSRHLGSSLILVEQPAEVAEIVQSLFKDPDILQIIAENGLRRMGKPGAALRIAECLQERLS”, the “soluble on expression in E. coli” value is reported as “not soluble”.
With “MAHHHHHHMEALETLRSIAPVSSTEEIQAMIKSAKNAREVRMVLERIVYTHHLCFDLLNGHGYRVAVLQTLTAVAPHASCMHEWFDCVARFRRLGFVLTRTYAAEGFTTIRQWLSHEFFHRGRSPSLVTEGTAHIKELMQWCLEDRLVFDHVLYTRIVFLLTMIVSYLDRQNLYRASFPEDFAKRDGIVVEWIVTNERCVDFDECVLQCDAVMEELLEQMRQDIPSRPPFSFMYRLADYYFATDNVEKMIAVMEDAESYGVSVAESTTAKLMQMACAFNSPQVPELLLRWRVLPPQCVLATPDMSRLLFFYSRSGGGLPCPHCGEAYNHRNVSVYCWLQTPPHQRQCPALRKARVQKGELEESRELPQNADWSAQAFGLFELSRARAIEWTAVEWRGFLLCCIFSPRAMEAKALMDQYLDVTEMDDFLRAACIRLLRHHAPAEAWPTLKKWKQQQCNMSPIALQEALMAASMVADAATRLEHMKAVWQLLLEKDSYVMPLTRRFYQRRMEELATSYAAAAASGDGKESQGGLATEREEAQLMQRVVEMQPRHVSLLDMKDSAADFVVGTRRKNVYRPR” the “soluble on expression in E. coli” value was “not soluble”.
With “MFTTKGIDISGELTMMGIPEQNSKTVTPGLHYAADGFRLSGGNANFIARNMASVTGNIYADDAATITLGQPETETPTISSAYQAWAETLLYGFDTAYRGAITAPKATVSMNNAIWHLNSQSSINRLETKDSMVRFTGDNGKFTTLTVDNLTIDDSAFVLRANLAQADQ” the “soluble on expression in E. coli” value was “not soluble”.
With “MNSSPAGTPSPQPSRANGNINLGPSANPNAQPTDFDFLKVIGKGNYGKVLLAKRKSDGAFYAVKVLQKKSILKKKEQSHIMAERSVLLKNVRHPFLVGLRYSFQTPEKLYFVLDYVNGGELFFHLQRERRFLEPRARFYAAEVASAIGYLHSLNIIYRDLKPENILLDCQGHVVLTDFGLCKEGVEPEDTTSTFCGTPEYLAPEVLRKEPYDRAVDWWCLGAVLYEMLHGLPPFYSQDVSQMYENILHQPLQIPGGRTVAACDLLQSLLHKDQRQRLGSKADFLEIKNHVFFSPINWDDLYHKRLTPPFNPNVTGPADLKHFDPEFTQEAVSKSIGCTPDTVASSSGASSAFLGFSYAPEDDDILDC” the “soluble on expression in E. coli” value was “soluble”.
In the case of “MGSDKIHHHHHHLQVEKNVVISEFIVNMEDVLYHRDNTDVNIAEKVAEQTASLAHYGVAHYVLTNATNQQDSDNLHIVQTDLFEHYPKLTLYFYRILMAFDFLQAHPEIEKAALTDAGDVKMLNYPFDAVEDGILYMGDETIFIYDTSILIGYDGPQFIKDFIWENGHLPILNLGIMVGTRETLIEYLGIMVKLITEAELSLAQGNDEAFLGTYKMAISNYVAYYYFKDRLVHGNQVSTIFHGEQMVSGAWFKHK”, the “soluble on expression in E. coli” value is reported as “not soluble”.
In the case of “MAHHHHHHMMSSASLLEKVPQPWAALVRPFLQRSHEFEDKEPLVAYYLRTHVAFLCMRQRSKEDKDGTAFLMTLLDALEASKARLGAQLQGIDGRTVLTKFALMLFARADDAERTGNASMAIVRLFYTASVLFEATAQFTDDGAMDAVAAQKSKYAKYIATRMKKALDKNEPYVSPNKLETADDDAAGGVGGVNGAGPATTFTTAPASCFMRPTSQPTSVSNRAPAPTTAHENLPALPYAPPPVTQKLDTPPPPPHTPDADTQGRSKTPVHPSPMKNTYAPPQPQHTSQQQQWLSTSSAVPSLPPTPSSAQQRYAAPSSAGGGVGATGFKPSVDQMIDAQKLASQAVSALQFYDYENAKQQLVASLRVLNGVQ”, the “soluble on expression in E. coli” value is reported as “soluble”.
For “MGSDKIHHHHHHGGEDYVQAEQAPMLKIPEGLKTPPYNKEYDVPALGPKANPALVGKNLDIRPPLQVLPMAEGTHVEEGSDNIKIVVESIDNNVDLKQEIFTNLDDFFAKQAIPIRSRDFDKGSIETDWIESREVLESSLWGSDKEYLLRQRYRFDVETRPHGRTANIVIHLVEHEEFYDGKEQKVMLSGEDKQRYTIDMLNSAIAYMSVKREQTIQANRLKQTLGINVDLITPEEGAAYWSAKAAYKQVWDRLRIVLPEMGFEISDMDSAKGLYFIKFTDNSGFWSSLWNNNQLSLKEGSYRLLLEDGDTPDETKIWLRDAEDQPLSNDVVSKVYESLSSLMKEERKLR”, the “soluble on expression in E. coli” value was “not soluble”.
In the case of “MDRLDRKILYLLQENATLSVADIAKKVGLSTTPCWRRIQKLEEDGVIQRRVAVLSPEKVNAHVTVFVSIRTNTHSQEWLKRFSKIVQEFREVIEFYRMSGDIDYLLRVVVPNIEAYDLFYKKLIAKIDIRDVSSSFAMEQIKYTTELPLNYIKLHDKTSEQNS”, the “soluble on expression in E. coli” value is reported as “not soluble”.
In the case of “MAVPPAYSDLGKSAKDIFSKGYGFGIVKLDLKTKSQNGVEFNTSGSTNTDTGKAAGSLETKYKLKDLGLSFNQKWNTDNMLTTEVSVEDQLAEGLKVALDTSFVPNTGKKSGKLKTSYKREFVNVSCDLDFEGPVVHSAAVLGYEGWLLGYLVAFDTAKSKLVQNNFALGYKTGDFQLHTNVNDGAEFGGSVYQKVSDQLETAVTLAWTAGSNNTRFGVAAKYQLDKDASLSAKVNNASLIGIGYTQSLRPGVKLTLSALVDGKNFNTGGHKVGLGFELEA”, the “soluble on expression in E. coli” value is reported as “not soluble”.
For “MKKIVLYGGQFNPIHTAHMIVASEVFHELQPDEFYFLPSFMSPLKKHHDFIDVQHRLTMIQMIIDELGFGDICDDEIKRGGQSYTYDTIKAFKEQHKDSELYFVIGTDQYNQLEKWYQIEYLKEMVTFVVVNRDKNSQNVENAMIAIQIPRVDISSTMIRQRVSEGKSIQVLVPKSVENYIKGEGLYEH”, the “soluble on expression in E. coli” value was “soluble”.
In the case of “MRRLKRDPLERAFLRGYQNGITGKSRDLCPFTHPTTRQSWLNGWREGRGDNWDGLTGTAGLQRLNQLQHVLEHHHHHH”, the “soluble on expression in E. coli” value is reported as “not soluble”.
For “MNKFIQSLPKVELHLHIEGTLEPELMLELAQRNSINIPFNSVEEIRDAYNFHNLQSFLDIYFQGADVLVHEQDFFDLTWAYLLRCQEDNVLHTEIFFDPQAHTERGILFDTVVNGIDRALNKGVSELGITSKLIMCFLRHLDEESAFKTLTQAQAHKDKIIGVGLDSTEIGNPANKFERVFKQAIEQGFLTVAHAGEEGPADNISEALSLLKITRIDHGVRCSEDASLVKQLVSERIPLTVCPLSNIKLKVFDRMEQHNIVTLLRQGVCVTINSDDPAYFGGYMTDNFVAVNNAHPMNKAEIAQFTFNAIEASFVSPSEQERLRQVTQKYIALHQE”, the “soluble on expression in E. coli” value was “not soluble”.
In the case of “MGASMTGGQQMGAPITAYAQQTRGLLGCIITSLTGRDKNQVEGEVQIVSTATQTFLATCINGVCWTVYHGAGTRTIASPKGPVIQMYTNVDQDLVGWPAPQGSRSLTPCTCGSSDLYLVTRHADVIPVRRRGDSRGSLLSPRPISYLKGSSGGPLLCPAGHAVGLFRAAVCTRGVAKAVDFIPVENLETTMRSGSHHHHHH”, the “soluble on expression in E. coli” value is reported as “soluble”.
